Data as given in patent US20160000936A1 (AbbVie / Abbott, published 2016).

T1: murine TNF (mouse, UniProt P06804 80-235)
T1 construct: also called mouse TNFα; TNFα
T1 sequence (looked up): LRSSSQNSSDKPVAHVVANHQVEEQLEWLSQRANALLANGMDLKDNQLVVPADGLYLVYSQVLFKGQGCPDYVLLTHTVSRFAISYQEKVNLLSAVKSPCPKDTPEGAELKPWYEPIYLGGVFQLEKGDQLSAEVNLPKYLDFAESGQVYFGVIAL

T2: murine IL-17 (mouse, UniProt Q62386 26-158)
T2 construct: also called mouse IL-17
T2 sequence (looked up): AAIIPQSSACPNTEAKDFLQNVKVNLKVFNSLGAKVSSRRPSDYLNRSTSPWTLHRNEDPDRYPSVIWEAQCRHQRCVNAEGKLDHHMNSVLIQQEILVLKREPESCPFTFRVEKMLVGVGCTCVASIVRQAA

B1: anti-murine TNF antibody 8C11 (antibody, mouse IgG2c, V domains shown)
VH: EFQLQQSGPELVKPGASVRISCKASGYSFTDYNMNWVKQSNGKSLEWVGVINPNYGSSTYNQKFKGKATLTVDQSSSTAYMQLNSLTSEDSAVYYCARKWGQLGRGFFDVWGTGTTVTVSS
VL: QIVLSQSPAILSASPGEKVTMTCRASSSVSYMHWFQQKPGSSPKPWIYATSNLASGVPARFSGSGSGTSYSLTISRVEAEDAATYYCQQWSSSPLTFGAGTKLELKR
notes: also called 8C11 anti-TNF antibody; anti-TNFα antibody 8C11
B2: anti-mouse TNF/IL-17 DVD-Ig protein 8C11/10F7M11 (bispecific antibody, human IgG1, kappa, L234A L235A)
heavy: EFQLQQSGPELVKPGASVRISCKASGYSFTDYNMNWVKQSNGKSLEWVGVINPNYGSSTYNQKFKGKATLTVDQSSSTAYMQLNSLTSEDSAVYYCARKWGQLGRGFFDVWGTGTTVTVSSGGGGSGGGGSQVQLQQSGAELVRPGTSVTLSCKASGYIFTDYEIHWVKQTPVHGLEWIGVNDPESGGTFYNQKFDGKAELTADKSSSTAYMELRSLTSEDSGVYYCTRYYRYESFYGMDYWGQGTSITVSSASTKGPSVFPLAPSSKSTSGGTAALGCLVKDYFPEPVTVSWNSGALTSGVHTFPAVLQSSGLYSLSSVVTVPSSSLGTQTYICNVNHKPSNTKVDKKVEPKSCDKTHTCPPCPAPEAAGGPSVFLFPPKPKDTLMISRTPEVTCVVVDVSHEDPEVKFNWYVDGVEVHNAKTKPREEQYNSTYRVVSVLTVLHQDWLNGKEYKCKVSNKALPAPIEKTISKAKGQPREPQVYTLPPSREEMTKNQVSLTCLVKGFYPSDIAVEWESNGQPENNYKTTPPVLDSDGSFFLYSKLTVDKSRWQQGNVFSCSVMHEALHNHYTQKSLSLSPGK
light: QIVLSQSPAILSASPGEKVTMTCRASSSVSYMHWFQQKPGSSPKPWIYATSNLASGVPARFSGSGSGTSYSLTISRVEAEDAATYYCQQWSSSPLTFGAGTKLELKRGGSGGGGSGQIVLTQSPAIMSASPGEKVTMTCSASSSISYIYWFQQKPGTSPKRWIYATFELASGVPARFSGSGSGTSYSLTISSMEAEDAATYYCHQRSSYPWTFGGGSKLEIKRTVAAPSVFIFPPSDEQLKSGTASVVCLLNNFYPREAKVQWKVDNALQSGNSQESVTEQDSKDSTYSLSSTLTLSKADYEKHKVYACEVTHQGLSSPVTKSFNRGEC
notes: The constant regions of the protein actually assayed are therefore uncertain; also called 8C11/10F7-DVD-Ig protein; 8C11/10F7M11 anti-TNF/IL-17 DVD-Ig protein

Tests used:
[1] = molecular target: T1, murine TNF; assay: assay not described; table titled 'Source And Binding Information'
[2] = molecular target: T2, murine IL-17; assay: as above

Binder | IC50 [1] [nM] | IC50 [2] [nM]
B1 | 2 | 
B2 | 2 | 0.13
